pKd: −log10 of the molar value.
Tests used:
[1] = target: protocadherin-15 EC1+2 I22A, His-tagged (mouse) (UniProt Q99PJ1); assay: thermal scanning (thermal stability shift assay with SYPRO orange); pcdh15 fixed at 0.1 mg/mL (~4 μM), cdh23 0.1 to 0.5 mg/mL (~4 to 20 μM; cdh23:pcdh15 1:1 to 5:1); SEC buffer (20 mM Tris-HCl pH 7.5, 150 mM KCl, 50 mM NaCl, 2 mM CaCl2); 10 to 95°C in 0.2°C steps, 5 s equilibration; read-out: shift of the Tm of pcdh15 (ΔTm)
pcdh15 (Mus musculus) = pcdh15 (Mus musculus) (UniProt Q99PJ1); assay: ITC; conditions: cited from earlier work

Substance	ΔTm of pcdh15 at cdh23:pcdh15 1:1 [1]	ΔTm of pcdh15 at cdh23:pcdh15 2:1 [1]	ΔTm of pcdh15 at cdh23:pcdh15 3:1 [1]	ΔTm of pcdh15 at cdh23:pcdh15 4:1 [1]	ΔTm of pcdh15 at cdh23:pcdh15 5:1 [1]	pKd (pcdh15 (Mus musculus))
cadherin-23 EC1+2, wild type, His-tagged (from UniProt Q99PF4 24-228) (domain or fragment)	0.5 °C	0.7 °C	1 °C	1.1 °C	1 °C	
cdh23 (from UniProt Q99PF4)						5.54

— article PMC5736220
